Measured values taken from the supplement of paper PMC10724198.
± gives the standard deviation of the averaged measurements.

System: Saccharomyces cerevisiae
Experiment: protein stability index of tFT-peptide fusion (C-terminal peptide) (PSI (0-1 scale)); higher = more stable (slower turnover)
Conditions: temperature: 30 C
Protocol: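 MPS profiling in S. cerevisiae of the yeast C-terminome library: the last 12 aa of each annotated ORF are fused to the C-terminus of a sfGFP-mCherry timer, after a GGGS linker. Cells are FACS-sorted into 8 mCherry/sfGFP bins and deep-sequenced. PSI runs from 0 (unstable) to 1 (stable); wild type and das1Δ backgrounds, two technical replicates each.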

[1] = genetic background: das1 deletion

Row | Sequence | protein stability index [1] | protein stability index (genetic background: wild type)
1 | QQQQQKKESSTA [GIM5 C-terminal 12 aa] | 0.727 ± 0.0087 | 0.7 ± 0.037
2 | IEERLVAIAEQD [SCL1 C-terminal 12 aa] | 0.7091 ± 0.0065 | 0.7 ± 0.017
3 | MNGIPREAFVQF [MEX67 C-terminal 12 aa] | 0.68 ± 0.0078 | 0.701 ± 0.022
4 | ITSQDILASTDY [YHL009W-B C-terminal 12 aa] | 0.688 ± 0.015 | 0.711 ± 0.027
5 | RHRKSEDRSLEA [ATR2 C-terminal 12 aa] | 0.706 ± 0.029 | 0.703 ± 0.062
6 | HLGKFFVKQKIL [ERP1 C-terminal 12 aa] | 0.696 ± 0.042 | 0.152 ± 0.0043
7 | SYRVMQPNEFES [YGL214W C-terminal 12 aa] | 0.7 ± 0.016 | 0.711 ± 0.11
8 | LASVRLSWYSII [YGR204C-A C-terminal 12 aa] | 0.71 ± 0.021 | 0.277 ± 0.014
9 | ASSIYIIFDYEN [BUB3 C-terminal 12 aa] | 0.6561 ± 0.0041 | 0.637 ± 0.025
10 | LLLSIFSILIVL [YPS7 C-terminal 12 aa] | 0.321 ± 0.0053 | 0.2802 ± 0.0025
11 | TFGKCILDGFKA [SCM4 C-terminal 12 aa] | 0.709 ± 0.017 | 0.687 ± 0.05
12 | LEKQEDYIDNLV [RPC37 C-terminal 12 aa] | 0.697 ± 0.02 | 0.73 ± 0.056
13 | IEQYLQTYGASA [URA5 C-terminal 12 aa] | 0.708 ± 0.011 | 0.695 ± 0.014
14 | NSNELEYAPTAN [LIA1 C-terminal 12 aa] | 0.686 ± 0.022 | 0.7 ± 0.11
15 | TTHGLKQKLQHA [RTN2 C-terminal 12 aa] | 0.701 ± 0.011 | 0.698 ± 0.024
16 | AEKRDALLKEDA [RPL19A C-terminal 12 aa] | 0.6845 ± 0.0059 | 0.699 ± 0.0074
17 | HYPSSDIRGDIL [YOR161C-C C-terminal 12 aa] | 0.6911 ± 0.0014 | 0.69973 ± 0.00023
18 | IKLEDAKGTHIK [RAD59 C-terminal 12 aa] | 0.695 ± 0.013 | 0.6411 ± 0.0032
19 | FGLFKKKNKSKK [SVL3 C-terminal 12 aa] | 0.727 ± 0.027 | 0.726 ± 0.073
20 | KGVIGTNPPITH [MPC3 C-terminal 12 aa] | 0.7045 ± 0.0018 | 0.719 ± 0.081
21 | LKEFTQFCKDNS [MIX23 C-terminal 12 aa] | 0.724 ± 0.023 | 0.721 ± 0.025

Row | Sequence | protein stability index [1] | protein stability index (genetic background: wild type)
22 | LVHFLGLILNNF [YNL171C C-terminal 12 aa] | 0.68 ± 0.018 | 0.624 ± 0.014
23 | KIITLDLSNYAE [SMC1 C-terminal 12 aa] | 0.709 ± 0.057 | 0.672 ± 0.049
24 | LNTYVILFYTVY [YOL166W-A C-terminal 12 aa] | 0.273 ± 0.046 | 0.263 ± 0.0054
25 | TEDKNKALESAQ [VPS60 C-terminal 12 aa] | 0.702 ± 0.013 | 0.6706 ± 0.0056
26 | AKFFIPFSHSSP [YPL185W C-terminal 12 aa] | 0.729 ± 0.01 | 0.705 ± 0.051
27 | SNKKLKSQWLIK [EMC1 C-terminal 12 aa] | 0.722 ± 0.017 | 0.665 ± 0.0081
28 | FCLQCFKDYCYS [SPO1 C-terminal 12 aa] | 0.6444 ± 0.0063 | 0.654 ± 0.032
29 | GKRNYLLSVTFV [YCR006C C-terminal 12 aa] | 0.653 ± 0.012 | 0.6385 ± 0.0019
30 | HIRKERTLYIYI [PIH1 C-terminal 12 aa] | 0.60684 ± 0.00034 | 0.351 ± 0.0044
31 | THTHHNPNPTLF [YNL338W C-terminal 12 aa] | 0.707 ± 0.011 | 0.716 ± 0.075
32 | KLLLNELRSFCV [PCL10 C-terminal 12 aa] | 0.72 ± 0.009 | 0.694 ± 0.028
33 | MSSTDWVTKPTY [AFG1 C-terminal 12 aa] | 0.6977 ± 0.0026 | 0.678 ± 0.017
34 | GPCCMYIGCGCG [YBR056C-B C-terminal 12 aa] | 0.6658 ± 0.0036 | 0.686 ± 0.032
35 | CLSIIGFLKTKV [YOR015W C-terminal 12 aa] | 0.7002 ± 0.0043 | 0.622 ± 0.023
36 | ILRILANSNDDN [BXI1 C-terminal 12 aa] | 0.699 ± 0.036 | 0.6562 ± 0.0062
37 | LDNILADLELDV [YIL001W C-terminal 12 aa] | 0.72202 ± 0.00032 | 0.684 ± 0.046
38 | DKITAELILNKI [EMC2 C-terminal 12 aa] | 0.6872 ± 0.0017 | 0.6632 ± 0.0027
39 | FHSMAHLSLHQY [YOR394C-A C-terminal 12 aa] | 0.7202 ± 0.00097 | 0.478 ± 0.091
40 | QHLKTHKKHGDF [MSN4 C-terminal 12 aa] | 0.719 ± 0.0085 | 0.6983 ± 0.001
41 | LDYLSSYINRRI [FLP1 C-terminal 12 aa] | 0.7058 ± 0.00092 | 0.6948 ± 0.0047
42 | RRHFSERRLENK [YPR074W-A C-terminal 12 aa] | 0.684 ± 0.022 | 0.73 ± 0.025

Row | Sequence | protein stability index [1] | protein stability index (genetic background: wild type)
43 | MSNSNSVCCTLM [STE18 C-terminal 12 aa] | 0.736 ± 0.01 | 0.7027 ± 0.0034
44 | PHVKLFETTSGL [IRC5 C-terminal 12 aa] | 0.718 ± 0.021 | 0.712 ± 0.014
45 | EKLPSKFTFKRE [ARN1 C-terminal 12 aa] | 0.696 ± 0.012 | 0.6817 ± 0.0011
46 | QMRKNMTRTDEK [PKH1 C-terminal 12 aa] | 0.671 ± 0.056 | 0.714 ± 0.026
47 | DKKLARAGNNAI [CUE3 C-terminal 12 aa] | 0.695 ± 0.0092 | 0.769 ± 0.0094
48 | ALNRSAIIKDDK [DDP1 C-terminal 12 aa] | 0.703 ± 0.0071 | 0.708 ± 0.01
49 | DDNEKALTWEEL [ATG19 C-terminal 12 aa] | 0.706 ± 0.013 | 0.6976 ± 0.0069
50 | SFDVLAKVPNAA [RPA190 C-terminal 12 aa] | 0.692 ± 0.011 | 0.655 ± 0.011
51 | HGGTISLCRFGG [SWT21 C-terminal 12 aa] | 0.686 ± 0.023 | 0.658 ± 0.015
52 | SRFEVACEQKAA [BSC2 C-terminal 12 aa] | 0.579 ± 0.019 | 0.592 ± 0.019
53 | FGWFDMNMEQGF [SEF1 C-terminal 12 aa] | 0.7562 ± 0.0074 | 0.757 ± 0.023
54 | ILQCFTDEILNC [NDJ1 C-terminal 12 aa] | 0.691 ± 0.0087 | 0.68 ± 0.022
55 | VSKMDCDPLTVA [NIF3 C-terminal 12 aa] | 0.678 ± 0.027 | 0.676 ± 0.025
56 | KGPSKTALLSKK [PKP1 C-terminal 12 aa] | 0.707 ± 0.021 | 0.711 ± 0.033
57 | FVFVNEFDVYTY [GPI12 C-terminal 12 aa] | 0.716 ± 0.018 | 0.704 ± 0.033
58 | SMDEEFKNMDCI [SIR3 C-terminal 12 aa] | 0.706 ± 0.0084 | 0.701 ± 0.05
59 | KKRKFGKVRIKN [NEJ1 C-terminal 12 aa] | 0.706 ± 0.047 | 0.698 ± 0.0074
60 | ALHLLTKFTHII [SBH2 C-terminal 12 aa] | 0.733 ± 0.012 | 0.167 ± 0.043
61 | AQLLLTLNEETS [CAF40 C-terminal 12 aa] | 0.6844 ± 0.0028 | 0.695 ± 0.032
62 | IVALILNTRGSE [VMA11 C-terminal 12 aa] | 0.683 ± 0.0096 | 0.668 ± 0.028
63 | NDTIKLNQSIYS [ASK10 C-terminal 12 aa] | 0.701 ± 0.02 | 0.7048 ± 0.0015

Row | Sequence | protein stability index [1] | protein stability index (genetic background: wild type)
64 | FEVDVDSLFKLY [MET1 C-terminal 12 aa] | 0.707 ± 0.018 | 0.442 ± 0.0068
65 | RWELVRESWREL [HSV2 C-terminal 12 aa] | 0.703 ± 0.03 | 0.786 ± 0.086
66 | NFKNSSAKSKRS [PKH2 C-terminal 12 aa] | 0.682 ± 0.014 | 0.695 ± 0.0083
67 | LLNDIKRRNMGR [MET28 C-terminal 12 aa] | 0.6834 ± 0.0045 | 0.723 ± 0.12
68 | AQGKLIMKVEGF [AST2 C-terminal 12 aa] | 0.698 ± 0.03 | 0.72 ± 0.024
69 | FCESDSIKMYPT [FYV10 C-terminal 12 aa] | 0.706 ± 0.0071 | 0.698 ± 0.026
70 | GNNGNNNNTTNL [PET123 C-terminal 12 aa] | 0.672 ± 0.008 | 0.669 ± 0.0096
71 | KVHEHDAKNDSK [CMP2 C-terminal 12 aa] | 0.702 ± 0.032 | 0.688 ± 0.054
72 | LMYIYQAFTTQD [GDT1 C-terminal 12 aa] | 0.684 ± 0.011 | 0.663 ± 0.036
73 | EGDIEPLKRILK [UBP2 C-terminal 12 aa] | 0.706 ± 0.012 | 0.675 ± 0.088
74 | WDGNLFVWNGLG [PEX7 C-terminal 12 aa] | 0.7335 ± 0.0029 | 0.4319 ± 0.0013
75 | AITLAWLAHALT [YHL037C C-terminal 12 aa] | 0.4375 ± 0.0012 | 0.39 ± 0.011
76 | PKWCSTMCSTAT [YDR445C C-terminal 12 aa] | 0.69 ± 0.03 | 0.743 ± 0.049
77 | FYLHGNGSDNLF [YGR153W C-terminal 12 aa] | 0.7164 ± 0.0016 | 0.711 ± 0.031
78 | VRKLSFHVYEDE [ACM1 C-terminal 12 aa] | 0.6908 ± 0.001 | 0.658 ± 0.0079
79 | NEEMIRKLKAAK [JID1 C-terminal 12 aa] | 0.674 ± 0.015 | 0.662 ± 0.021
80 | LFSNVLSLSSNI [YGL007C-A C-terminal 12 aa] | 0.7296 ± 0.0024 | 0.695 ± 0.016
81 | ALWKEKKEKPRS [RPS23A C-terminal 12 aa] | 0.709 ± 0.01 | 0.687 ± 0.03
82 | FATFELAMRLLG [YMC1 C-terminal 12 aa] | 0.674 ± 0.015 | 0.194 ± 0.013
